Assay results published in paper PMC5518672 (Nature structural & molecular biology, 2013).

Tests used:
SEC [1] = target: the molecule itself; test: SEC
SEC [2] = target: the molecule itself; test: SEC; remark: listed apart in the source
SEC-MALS = target: the molecule itself; test: SEC-MALS

B1: recombinant full-length Aplysia CPEB (His6-CPEB fusion protein) (natural protein)
chain: not shown
- stoichiometry N (SEC [1]): > 10
- stoichiometry N (SEC [2]): ≥ 10
- stoichiometry N (SEC-MALS): 3
